According to US20200383917A1 (NORTHWESTERN UNIVERSITY, published 2020):
Ends that are not written are not given here.

Molecular target: T1, CD11c on the surface of mouse bone marrow-derived dendritic cells (BMDCs) (mouse, UniProt Q9QXH4 20-1169)
T1 sequence (looked up): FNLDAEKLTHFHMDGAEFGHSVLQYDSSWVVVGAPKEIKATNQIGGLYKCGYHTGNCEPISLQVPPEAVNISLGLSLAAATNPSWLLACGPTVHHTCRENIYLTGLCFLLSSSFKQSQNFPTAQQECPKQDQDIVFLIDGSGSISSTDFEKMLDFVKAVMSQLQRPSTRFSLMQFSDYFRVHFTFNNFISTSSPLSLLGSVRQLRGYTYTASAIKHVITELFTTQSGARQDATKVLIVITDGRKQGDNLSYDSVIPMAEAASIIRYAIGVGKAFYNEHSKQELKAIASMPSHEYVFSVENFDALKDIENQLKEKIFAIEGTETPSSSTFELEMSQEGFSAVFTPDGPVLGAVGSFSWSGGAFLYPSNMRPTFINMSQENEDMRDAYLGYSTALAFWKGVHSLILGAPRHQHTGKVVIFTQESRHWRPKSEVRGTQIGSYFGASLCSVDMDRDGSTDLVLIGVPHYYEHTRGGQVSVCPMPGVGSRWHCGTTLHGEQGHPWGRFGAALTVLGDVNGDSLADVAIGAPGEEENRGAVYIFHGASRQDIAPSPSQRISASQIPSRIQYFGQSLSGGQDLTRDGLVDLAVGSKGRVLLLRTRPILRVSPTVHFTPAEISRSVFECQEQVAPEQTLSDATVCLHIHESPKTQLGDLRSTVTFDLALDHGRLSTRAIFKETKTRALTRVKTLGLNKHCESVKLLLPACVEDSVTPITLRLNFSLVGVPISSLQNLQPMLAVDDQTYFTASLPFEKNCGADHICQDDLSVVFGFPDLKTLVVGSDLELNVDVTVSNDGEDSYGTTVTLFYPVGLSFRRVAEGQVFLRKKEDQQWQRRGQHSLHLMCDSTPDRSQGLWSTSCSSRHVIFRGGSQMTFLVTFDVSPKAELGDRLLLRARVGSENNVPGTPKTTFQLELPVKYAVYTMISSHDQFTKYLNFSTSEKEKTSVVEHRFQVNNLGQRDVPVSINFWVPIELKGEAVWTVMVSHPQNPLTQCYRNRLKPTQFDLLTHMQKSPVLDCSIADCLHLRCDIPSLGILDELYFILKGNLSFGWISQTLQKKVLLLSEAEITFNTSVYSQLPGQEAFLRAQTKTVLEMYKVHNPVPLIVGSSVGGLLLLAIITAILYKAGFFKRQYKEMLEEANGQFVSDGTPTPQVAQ
Test: cell-based or functional assay

Question: GGVTLTYQFAAGPRDK (not fully specified (N-terminus); also: displayed on PEG-bl-PPS polymersome) [P-D2-PEG5-PS (PEG-bl-PPS polymersome displaying the P-D2-PEG5-Lys-PA targeting peptide construct)] was tested. Which “cellular uptake by BMDCs (flow cytometry, nile red-loaded PS, 1 h incubation)” value did it give?
Answer: > 3 fold
